Assay [1] deals with shedded GPIbα or glycocalicin (UniProt P07359).
The target is the same in assay [2]. Nature of the assay: biomembrane force probe (BFP), force-clamp assay; bead-bead mode; VWF-A1 on the probe bead, glycocalicin on the target bead; single bonds held at clamp forces of 10-70 pN; bond lifetime vs force; beads without treatment.
Assay [3] has the same target. Put plainly: biomembrane force probe (BFP), adhesion frequency assay; bead-bead mode; VWF-A1 covalently linked to the probe bead, glycocalicin to the target bead; 20 pN impingement, 0.2 s contact; 200 approach-contact-retract cycles per probe-target pair, five pairs.

In assay [1], “VWF-A1 with short N-AIM, high binder form, 1261^H-A1 (from UniProt P04275 1261-1472) (domain or fragment)” yielded a mean rolling velocity of washed human platelets (native GPIbα) on coated 1261^H-A1 at 800 s^-1 of 3.15 μm s^−1 and a tethered platelet density; washed human platelets (native GPIbα) perfused at 800 s^-1 for 30 s over coated 1261^H-A1, no treatment of 0.0053 μm^−2. Further, the peak bond lifetime at 20-25 pN in assay [2] is 2.26 s. Further, in assay [3], the adhesion frequency (Pa) came out at 0.13.

The values above are taken from PMC9175105.
